Measured values taken from article PMC8016950 (2021).

Target: full length human galectin-3 (hGal3), Cys173 mutated to Thr (human, UniProt P17931 1-250, Cys173 mutated to Thr)
Test: SPR

full length human galectin-3 (hGal3), Cys173 mutated to Thr, sequence (P17931 other isoform, or with tags, fused parts or gaps Cys173 mutated to Thr): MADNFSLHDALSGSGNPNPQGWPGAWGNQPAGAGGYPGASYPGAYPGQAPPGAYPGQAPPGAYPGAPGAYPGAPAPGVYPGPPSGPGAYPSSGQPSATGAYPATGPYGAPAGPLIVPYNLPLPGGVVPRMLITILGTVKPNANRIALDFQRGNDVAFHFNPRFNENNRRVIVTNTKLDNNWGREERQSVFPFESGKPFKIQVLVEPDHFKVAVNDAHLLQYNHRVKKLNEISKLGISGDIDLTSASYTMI

B1: GaletuzuFab-PAS200-Cys (Fab, V domains shown)
VH: QIQLVQSGAEVKKPGESLKISCKVSGYTFTDYAIHWVRQMPGKGLKWMGWINTYTGKPIYADDFKGQVIISLDKSINTAYLQWSSLKASDTAIYYCARGTMMASLDYWGQGTTVTVSS
VL: DVVMTQSPSSLSASVGDRVTITCKSSQSLVHSDGKTYLSWIQQKPGKAPKGLIYLVSKLDSGVPSRFSGSGSETDFTLTISSLQPEDSATYYCWQATHFPLTFGPGTKVDIR
B1 was tested, and the Kd was 0.31 nM.
